According to patent publication US20080058263A1 (published 2008):
Residue numbers refer to the chain shown, from its start.

T1: VEGFR-3-Fc (UniProt P35916 25-328)
T1 construct: domain: first three Ig domains; conditioned supernatant of 293T cells; also called VEGFR-3-Fc fusion protein; not shown: Fc fragment of the pIg vector
T1 sequence (looked up): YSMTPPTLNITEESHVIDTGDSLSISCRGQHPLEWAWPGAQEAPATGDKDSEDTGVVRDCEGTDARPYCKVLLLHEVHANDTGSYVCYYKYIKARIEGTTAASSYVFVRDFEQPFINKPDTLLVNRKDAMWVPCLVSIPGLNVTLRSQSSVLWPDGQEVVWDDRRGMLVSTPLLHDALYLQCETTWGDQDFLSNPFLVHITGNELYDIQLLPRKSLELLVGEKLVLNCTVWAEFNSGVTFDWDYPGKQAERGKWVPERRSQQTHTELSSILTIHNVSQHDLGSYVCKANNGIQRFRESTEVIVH

B1: 31-2 (ligand)
chain: GQNHHEVVKSIDNEWRKTQCMPIETLVDIFQEYPDEIEYIFKPSCVPLMRCGGCCNDEGLECVPTEESNITMQIMRIKPHQGQHIGEMSFANHTSCRCMSKLD
B2: 52-6 (ligand)
chain: AHYNTEILKSIDNEWRKTQCMPIETLVDIFQEFGVATNTFFKPPCVSVYRCGGCCNDEGLECMNTSTSYLSKTLFEIKPHQGQHIGEMSFANHTSCRCMSKLD
B3: 52-8 (ligand)
chain: B2 chain with D57S, E61Q
B4: 51-9 (ligand)
chain: AHYNTEILKSIDNEWRKTQCMPIETLVDIFQEYPDEIEYIFKPSCVPLMRCGGCCNDEGLECVPTEESNITMQIMRITVPLSQGPKPVTISFLQHNKCECRPKKD
B5: 51-11 (ligand)
chain: B4 chain with D57S, E61Q
B6: 51-15 (ligand)
chain: B4 chain with D57S, E61Q, L93A, Q94N, N96T, K97S, E99R, R101M, P102S, K104L
B7: 51-13 (ligand)
chain: B4 chain with L93A, Q94N, N96T, K97S, E99R, R101M, P102S, K104L
B8: 51-8 (ligand)
chain: AHYNTEILKSIDNEWRKTQCMPIETLVDIFQEYPDEIEYIFKPSCVPLMRCGGCCNSEGLQCMNTSTSYLSKTLFEIKPHQGQHIGEMSFANHTSCRCMSKLD
B9: 52-1 (ligand)
chain: AHYNTEILKSIDNEWRKTQCMPIETLVDIFQEFGVATNTFFKPPCVSVYRCGGCCNDEGLECVPTEESNITMQIMRIKPHQGQHIGEMSFLQHNKCECRPKKD
B10: 52-7 (ligand)
chain: B9 chain with D57S, E61Q, L91A, Q92N, N94T, K95S, E97R, R99M, P100S, K102L
B11: 52-3 (ligand)
chain: B9 chain with D57S, E61Q

molecular target: T1, VEGFR-3-Fc; assay: receptor-Fc IP
Summary of the method: (§1)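 fusion protein at 400 ng/ml in an IP mix (PBS, 1.5% BSA, 0.06% Tween 20, 3 μg/ml heparin) was combined with sample supernatant at a 1:2 ratio. Bound ligand captured by immunoprecipitation with pentahistidine antibody.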

Binding result, no binding:
B1
B2
B3
B4
B5
B6
B7
B8
B9
B10
B11

molecular target: T2, VEGFR-2-Fc (UniProt P35968 20-322); assay: receptor-Fc IP
T2 construct: domain: first 3 Ig domains; conditioned supernatant of 293T cells; also called VEGFR-2-Fc fusion protein; not shown: Fc fragment of the pIg vector
T2 sequence (P35968 20-322): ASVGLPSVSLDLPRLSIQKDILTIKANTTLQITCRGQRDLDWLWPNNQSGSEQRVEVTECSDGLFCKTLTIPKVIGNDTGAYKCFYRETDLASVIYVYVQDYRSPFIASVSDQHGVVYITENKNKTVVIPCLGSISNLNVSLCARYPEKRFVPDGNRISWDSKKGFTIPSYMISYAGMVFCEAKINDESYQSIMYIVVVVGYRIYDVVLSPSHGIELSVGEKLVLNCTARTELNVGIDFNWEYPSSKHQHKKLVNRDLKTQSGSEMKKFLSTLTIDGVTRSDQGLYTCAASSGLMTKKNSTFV
Summary of the method: as §1

Binding result, no binding:
B1
B2
B3
B4
B5
B6
B7
B8
B9
B10
B11

molecular target: T3, VEGFR-1-Fc (UniProt P17948 27-338); assay: receptor-Fc IP
T3 construct: domain: first three Ig domains; expressed in Drosophila S2 cells, purified on Protein A sepharose; also called VEGFR-1-Fc fusion protein; not shown: Fc fragment from the Signal-pIgPlus vector
T3 sequence (P17948 27-338): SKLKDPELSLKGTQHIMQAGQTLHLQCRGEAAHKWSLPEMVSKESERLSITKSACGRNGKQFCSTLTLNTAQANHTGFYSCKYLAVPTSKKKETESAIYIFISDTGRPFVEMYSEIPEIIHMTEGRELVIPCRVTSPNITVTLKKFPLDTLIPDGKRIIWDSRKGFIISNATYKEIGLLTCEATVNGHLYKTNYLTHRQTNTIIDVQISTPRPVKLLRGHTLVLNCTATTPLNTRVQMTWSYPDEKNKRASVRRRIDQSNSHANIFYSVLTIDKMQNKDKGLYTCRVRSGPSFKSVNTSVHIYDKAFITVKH
Summary of the method: as §1

Binding result, no binding:
B1
B2
B3
B4
B5
B6
B7
B8
B9
B10
B11
